For data set [1] the following is noted: cited from earlier work.
For data set [2] the following is noted: 24 hours, 37° C.
The subject of data set [3] is mixture of NK and T (NK/T) cells. Kind of data set: T-cell or NK/T cell proliferation assay in the presence of adenosine. Type of data set: cell-based. From the text: Reversal of adenosine-mediated immunosuppression by any ADA2 provided herein, including wildtype and variants, conjugates and other modified forms thereof, and combination therapy using any ADA2 provided herein and other agents, can be examined in vitro, for example, by performing proliferation assays. Such assays include, but are not limited to T-cell proliferation assays or a mixture of NK and T (NK/T) cell proliferation assays, in the presence of adenosine and/or any ADA2 provided herein and/or any other combination therapy agents. For example, the immunosuppressive effect of adenosine on various immune cells, such as lymphocytes, natural killer (NK) cells, polymorphonuclear granulocytes, and phagocytic cells such as tissue macrophages, can be assessed by proliferation assays using the immune cells or mixtures thereof, such as the mixture of NK and T (NK/T) cells prepared from peripheral blood mononuclear cells (PBMC). The effect of any ADA2 provided herein and any other combination therapy agents provided herein, can be assessed by comparing the results of such proliferation assays in the presence of adenosine, with or without the addition of any ADA2 provided herein and/or any other combination therapy agents provided herein, including immune checkpoint inhibitors. Combination therapy agents are described in Section H.4 below. […]

Data set [4] deals with adenosine in tumor extracellular matrix. Kind of data set: Adenosine in MH194+PSC4 tumor extracellular matrix (microdialysis, LC/MS). Type of data set: in vivo, mice. The following applies: for Adenosine concentration in ECM, Mean: n = 8; for Adenosine concentration in ECM, individual tumors: single animal values; for adenosine concentration in tumor ECM: 0.03 mg/kg. As for the experimental part: To assess the effects of PEGADA2 on adenosine in tumor extracellular matrix, mice bearing peritibial MH194+PSC4 tumors received vehicle, the polypeptide whose sequence is set forth in SEQ ID NO:20, which contains the amino acid replacement K374D (Zavialov numbering; K371D mature numbering), at 0.03 mg/kg, or the polypeptide whose sequence is set forth in SEQ ID NO: 273, which contains the amino acid replacements R222Q/S265N (Zavialov numbering; R219Q/S262 mature numbering), at 0.03 mg/kg, 24 or 48 hours prior to microdialysis. Each of the polypeptides were PEGylated as described above in Examples 8 and 22). The mice were anesthetized using isofluorane, and a heating pad was used to maintain body temperature. A small incision was made on the tumor. A microdialysis probe with 55,000 Da molecular weight cut-off (CMA, Stockholm, Sweden) was inserted into the tumor, via a guided cannula. The length of the microdialysis probe used in this study was 10 mm. Once the probe was in position, the cannula was withdrawn leaving the probe completely embedded in the tumor tissue. Dulbecco's phosphate buffered saline (DPBS; Thermo Fisher Scientific) with ADA inhibitors (Pentostatin and 5-iodotubercindin) was perfused through the probe at a flow rate of 1 μl/min for 30 minutes. Then the samples were collected at a flow rate of 0.5 μl/min for 60 minutes. Microdialysis perfusates were analyzed by Liquid chromatography-mass spectrometry (LC/MS) at MicroConstants (9050 Camino Santa Fe, San Diego, Calif. 92121).

In data set [5] the test system is KLN205 murine lung cancer tumor. Kind of data set: Tumor growth inhibition of combination therapy with anti-PD-1, KLN205 syngeneic tumor model. It is filed as in vivo, DBA/2 mice. The following applies: study day 14, PEG-K374D 0.3 mg/kg IV biweekly, α-PD-1 2 mg/kg IP biweekly. As for the experimental part: KLN205 syngeneic tumor models were produced by injecting thirty-two (32) DBA/2 mice with 5×10^5 KLN205 murine lung cancer tumor cells (ATCC CRL-1453), in 0.1 mL injection volume per animal, subcutaneously. Tumor bearing mice were staged into treatment groups when the average tumor size reached approximately 100 mm^3.
For treatment, animals were randomized into 4 groups (n=8/group): 1) saline vehicle control, 2) PEG-K374D, 3) α-PD-1 antibody (Clone RMP1-14, Cat. No. BE0146; BioXCell, West Lebanon, N.H.), or 4) PEG-K374D+α-PD-1. PEG-K374D was dosed intravenously biweekly at 0.3 mg/kg, and α-PD-1 was dosed intraperitoneally biweekly at 2 mg/kg). The sequence of dosing in the combination group was PEG-K374D immediately followed by α-PD-1.
where “Tn” is the average tumor volume for the treatment group at day “n” after the final dose of PEG-K374D and α-PD-1 or control; “T0” is the average tumor volume in that treatment group at day 0, before treatment; “Cn” is the average tumor volume for the corresponding control group at day “n”; and “C0” is the average tumor volume in the control group at day 0, before treatment.

“And” between values parts separate entries of the source, which are not always exact repeats. Equal values may be shown once. “Also recorded” adds a separate entry of the source. Read-outs that look alike come from different tables or passages of the source.

The term Km denotes the substrate concentration at which the rate is half of its maximum.

B1: ADA2: wild-type human adenosine deaminase 2, mature form SEQ ID NO:5, homodimer (protein, listed as Homo sapiens)
chain: IDETRAHLLLKEKMMRLGGRLVLNTKEELANERLMTLKIAEMKEAMRTLIFPPSMHFFQAKHLIERSQVFNILRMMPKGAALHLHDIGIVTMDWLVRNVTYRPHCHICFTPRGIMQFRFAHPTPRPSEKCSKWILLEDYRKRVQNVTEFDDSLLRNFTLVTQHPEVIYTNQNVVWSKFETIFFTISGLIHYAPVFRDYVFRSMQEFYEDNVLYMEIRARLLPVYELSGEHHDEEWSVKTYQEVAQKFVETHPEFIGIKIIYSDHRSKDVAVIAESIRMAMGLRIKFPTVVAGFDLVGHEDTGHSLHDYKEALMIPAKDGVKLPYFFHAGETDWQGTSIDRNILDALMLNTTRIGHGFALSKHPAVRTYSWKKDIPIEVCPISNQVLKLVSDLRNHPVATLMATGHPMVISSDDPAMFGAKGLSYDFYEVFMGIGGMKADLRTLKQLAMNSIKYSTLLESEKNTFMEIWKKRWDKFIADVATK
modifications: ADA2 mature protein
Consider B1, for which the Km in data set [1] (for adenosine, wild-type enzyme in humans, read-out: Km) was approximately 2000 µM; in data set [1] (read-out: Km for adenosine), approximately 2250 µM. In addition, the “activity retained in PBS/BSA control” value in data set [2] was “no change in activity”. The “activity retained after treatment with plasma” value in data set [2] (mouse plasma) is given as “about 65%”. Moreover, the “reversal of adenosine-mediated immunosuppression” value in data set [3] is recorded as “reverse the adenosine-dependent immunosuppression; also recorded: reversed”.

B2: K374D: ADA2 variant SEQ ID NO:20 (protein)
chain: IDETRAHLLLKEKMMRLGGRLVLNTKEELANERLMTLKIAEMKEAMRTLIFPPSMHFFQAKHLIERSQVFNILRMMPKGAALHLHDIGIVTMDWLVRNVTYRPHCHICFTPRGIMQFRFAHPTPRPSEKCSKWILLEDYRKRVQNVTEFDDSLLRNFTLVTQHPEVIYTNQNVVWSKFETIFFTISGLIHYAPVFRDYVFRSMQEFYEDNVLYMEIRARLLPVYELSGEHHDEEWSVKTYQEVAQKFVETHPEFIGIKIIYSDHRSKDVAVIAESIRMAMGLRIKFPTVVAGFDLVGHEDTGHSLHDYKEALMIPAKDGVKLPYFFHAGETDWQGTSIDRNILDALMLNTTRIGHGFALSKHPAVRTYSWDKDIPIEVCPISNQVLKLVSDLRNHPVATLMATGHPMVISSDDPAMFGAKGLSYDFYEVFMGIGGMKADLRTLKQLAMNSIKYSTLLESEKNTFMEIWKKRWDKFIADVATK
modifications: human ADA2 K371D, mature numbering
As for B2, the “Adenosine concentration in ECM, Mean” value was 19.54 µM in data set [4] (24 hours after 0.03 mg/kg) and 11.06 µM in data set [4] (48 hours after 0.03 mg/kg). The “Adenosine concentration in ECM, individual tumors” value in data set [4] (24 hours after 0.03 mg/kg) is 49.02 µM and 12.72 µM and 29.64 µM and 13.58 µM and 12.54 µM and 7.48 µM and 2.04 µM and 29.30 µM; in data set [4] (48 hours after 0.03 mg/kg) it was 23.13 µM and 0.07 µM and 6.47 µM and 2.77 µM and 20.92 µM and 1.64 µM and 27.54 µM and 5.95 µM. The “adenosine concentration in tumor ECM” value in data set [4] (24 hours post treatment) was 19.5 µM; in data set [4] (48 hours post treatment), 11 µM.

B3: PEG-K374D: rHuADA2-K374D (SEQ ID NO:20) PEGylated on surface exposed lysines with linear PEG-20K (conjugate)
chain: IDETRAHLLLKEKMMRLGGRLVLNTKEELANERLMTLKIAEMKEAMRTLIFPPSMHFFQAKHLIERSQVFNILRMMPKGAALHLHDIGIVTMDWLVRNVTYRPHCHICFTPRGIMQFRFAHPTPRPSEKCSKWILLEDYRKRVQNVTEFDDSLLRNFTLVTQHPEVIYTNQNVVWSKFETIFFTISGLIHYAPVFRDYVFRSMQEFYEDNVLYMEIRARLLPVYELSGEHHDEEWSVKTYQEVAQKFVETHPEFIGIKIIYSDHRSKDVAVIAESIRMAMGLRIKFPTVVAGFDLVGHEDTGHSLHDYKEALMIPAKDGVKLPYFFHAGETDWQGTSIDRNILDALMLNTTRIGHGFALSKHPAVRTYSWDKDIPIEVCPISNQVLKLVSDLRNHPVATLMATGHPMVISSDDPAMFGAKGLSYDFYEVFMGIGGMKADLRTLKQLAMNSIKYSTLLESEKNTFMEIWKKRWDKFIADVATK
modifications: linear PEG-20K on surface lysines; human ADA2 K371D, mature numbering
B3: in data set [5], the “Average Tumor Volume” value came out at 264.56 mm^3 and the “Tumor Growth Inhibition” value is “inhibited tumor growth; also recorded: greater tumor growth inhibition than either α-PD-1 treatment alone or the PEG-K374D+α-PD-1 combination therapy”. Further, in data set [5] (vs vehicle), the “Tumor Growth Inhibition” value came out at 78%.
